Source: article PMC6833485

Target: thrombin (Homo sapiens, UniProt P00734;P00734 328-363;364-622)
Experiment: reflectometric interference spectroscopy (RIfS), immobilized aptamer; PBS + MgCl2; sigmoidal fit of dEOT; Binding buffer PBS + MgCl2 (concentration, pH not given); TBA preheated 95 °C 5 min, cooled to room temperature; flow cell, assay temperature not stated

## GGTTGGTGTGGTTGG (structured_DNA, 5'-biotin) [TBA 15-mer (5'-biotin)]
  Kd: 900 nM
